± gives the standard deviation.

The series can be described thus: protein stability index of a GFP-peptide fusion (GPS, HEK-293T) (PSI 1-6); higher = more stable.
Where [1] appears, read: treatment: DMSO, c terminus: a fixed tail appended.
[2] abbreviates: treatment: MLN4924 1 uM, 8 h, c terminus: a fixed tail appended.
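Also: 24-mer peptide tiles fused after GFP, lentivirally expressed, FACS-sorted into six equal bins by GFP/DsRed ratio, decoded by Illumina sequencing, PSI is the read-weighted mean bin number.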

As for KISGGPHISYPPLHEWVLREGEE [MAGEA3], the protein stability index stood at 2.92 ± 0.62 (treatment: DMSO, c terminus: native) and 3.33 ± 0.43 (treatment: MLN4924 1 uM, 8 h, c terminus: native).
As to KIYDSPCLPEAEAMFAINADGVGD [RAD51], the protein stability index worked out at 4.71 ± 0.19 under setting [1] and 4.65 ± 0.38 under setting [2].
The like results for KKAQGKTQQNRKLTDFYPVRRSSR [KMT5A] were, in that order, 3.29 ± 0.54 and 3.86 ± 0.39.
For KKMEQNKTAATRYRQKKRAEQEAL [ATF4], in that order: 4.48 ± 0.52 and 4.55 ± 0.33.
With KKRLQELALALKKCKPSLPAEAEG [TMEM120A], the protein stability index amounted to 3.62 ± 0.48 under setting [1] and 3.34 ± 0.36 under setting [2].
For KKWQQYRSVRRERLKEMKLLRDQF [FAM9B], in that order: 2.59 ± 0.27 and 2.71 ± 0.2.
Take KLAQALHEMREQHDAQVRLYKEEL [LMNB1]: the protein stability index is, setting by setting: under setting [1], 2.66 ± 0.3; under setting [2], 2.7 ± 0.22.
KLQLQLNETKSQAFVSNSPKLFCP [PLD5]: the protein stability index under setting [1] is 2.87 ± 0.075 and the protein stability index under setting [2] came out at 2.95 ± 0.6.
For KNGRVDSEDRRSRHCPYLDTINRS [USP39], in that order: 3.99 ± 0.26 and 4.2 ± 0.34.
The like results for KNHEEEMLALRGQTGGDVNVEMDA [KRT16] were, in that order, 5.46 ± 0.17 and 5.6 ± 0.22.
Consider KPARKRRRRSRKKPSGALGSESYK [EHMT1], for which the protein stability index was found to be 5.11 ± 0.27 under setting [1] and 5.28 ± 0.14 under setting [2].
The like results for KQQKDPSEEAAVLQYASLVGQKCS [ATE1] were, in that order, 4.84 ± 0.23 and 4.77 ± 0.2.
For KRFQTLISKMEPLEIPVETITSEV [CRY1], in that order: 3.27 ± 0.25 and 3.5 ± 0.39.
For KRIAHFDLKPENIMLLDKNVPNPR [DAPK3], in that order: 3.68 ± 0.44 and 3.25 ± 0.77.
For KRPAPRTAPRQEKHERTHEIIPIN [SPRY1], the protein stability index was found to be 4.03 ± 0.18 under setting [1] and 4.2 ± 0.15 under setting [2].
For KRRRKETSECPSDKDKSPESHKAK [C10orf62], the protein stability index runs as follows: under setting [1], 5.34 ± 0.27; under setting [2], 5.42 ± 0.21.
For KSEEELAECFRIFDRNADGYIDPE [TNNC2], in that order: 4.8 ± 0.52 and 5.29 ± 0.43.
For KSFSMAKGLNARMMRGLSYSLTTS [RAB40A], in that order: 2.35 ± 0.13 and 2.56 ± 0.25.
The like results for KSPLHMTAVHGRFTRSQTLIQNGG [ANKRD44] were, in that order, 3.28 ± 0.24 and 3.45 ± 0.18.
As to KSRRSRSESETSTMAAKKNRQSSD [C18orf25], the protein stability index is 5.47 ± 0.15 under setting [1] and 5.53 ± 0.25 under setting [2].
Take KTIDLGAAAHYTGDKASPDQNAST [CLINT1]: the protein stability index reads like this: under setting [1], 5.26 ± 0.31; under setting [2], 5.41 ± 0.49.
The like results for KTKAPAPDEGSDLFYDDYYEDGEV [CDC34] were, in that order, 5.35 ± 0.31 and 5.38 ± 0.29.
With KVLGNRWAEIAKMLPGRTDNAVKN [MYBL2], the protein stability index reads like this: under setting [1], 2.91 ± 0.45; under setting [2], 2.98 ± 0.24.
The like results for KVLILRNHGLVSVGESVEEAFYYI [ADD1] were, in that order, 2.63 ± 0.53 and 2.72 ± 0.67.
The like results for KYLKLQDTCRTQLVWLVRELVKSG [INTS3] were, in that order, 2.94 ± 0.82 and 2.6 ± 0.83.
The like results for LAAAPEGLEDAGLDPHFVPTELWP [TEX19] were, in that order, 4.06 ± 0.11 and 4.19 ± 0.24.
LAAKERHCGELKRRLGLSTLGELK [TPD52L2]: the protein stability index amounted to 2.85 ± 0.32 under setting [1] and 3.02 ± 0.33 under setting [2].
For LAGQFLEELRKFSSLCYKQRIKSQ [MOG], in that order: 2.17 ± 0.27 and 2.14 ± 0.38.
For the sequence LALALKKCKPSLPAEAEGAAQELE [TMEM120A], the protein stability index under setting [1] turned out to be 4.39 ± 0.18 and the protein stability index under setting [2] was found to be 4.46 ± 0.19.
For LALCPANHAPLREQGAIPRLVQLL [CTNNB1], in that order: 2.39 ± 0.21 and 2.59 ± 0.21.
The like results for LAMLALLSPLSLAQYDSWPHYPEY [LOXL2] were, in that order, 3.22 ± 0.32 and 3.46 ± 0.16.
For LASGLVVFFLFPHSVLVDDDGIKV [TMEM106C], in that order: 2.92 ± 0.48 and 2.86 ± 0.49.
For LCAPEVISLINTRMLFWACSTNKP [FAF2], the protein stability index was 3.04 ± 0.47 under setting [1] and 2.88 ± 0.41 under setting [2].
For LCEEFRNRNQRIVQLIQDTRIHIL [CPN1], in that order: 2.25 ± 0.13 and 2.4 ± 0.26.
The like results for LCQKSNDISIHHFTCDEENVFAAV [WDR41] were, in that order, 2.84 ± 0.18 and 2.91 ± 0.31.
Take LCVILYKKVHKGTVPKNDADDESE [GLT8D2]: the protein stability index by setting is: under setting [1], 2.02 ± 0.15; under setting [2], 2.31 ± 0.1.
LDEALKHVKETQPPETVQNWIELL [GOLPH3]: the protein stability index came to 3.94 ± 0.18 under setting [1] and 4.17 ± 0.24 under setting [2].
As to LEDMGQPPAEEAEQPGALAREFLA [FKBP8], the protein stability index runs as follows: under setting [1], 5.15 ± 0.19; under setting [2], 5.38 ± 0.2.
With LELLDKIERSKIVSTMRCKTRQKS [PPEF2], the protein stability index reads like this: under setting [1], 3.54 ± 0.43; under setting [2], 3.73 ± 0.074.
In the case of LELTVRRVQGVLRGRAREREQLQA [HES6], the protein stability index worked out at 3.7 ± 0.45 under setting [1] and 3.64 ± 0.43 under setting [2].
The like results for LENSKYCRFNQDPEAVDEDRSTEP [ATE1] were, in that order, 5.5 ± 0.24 and 5.29 ± 0.45.
For LFDLMRRMLEFDPAQRITLAEALL [CLK3], in that order: 2.05 ± 0.6 and 2.19 ± 0.11.
For LFEEILSNSRQLKWLSCGFMLEIV [FBXO33], in that order: 3.02 ± 0.69 and 2.79 ± 0.57.
As to LGGFSHWGRLTSYSGGGYYLDLPG [PKD2L1], the protein stability index was determined as 2.47 ± 0.19 under setting [1] and 2.74 ± 0.25 under setting [2].
Regarding LGNVLFSPICLSTSLSLAQVGAKG [SERPINB5], the protein stability index is, setting by setting: under setting [1], 2.48 ± 0.2; under setting [2], 2.12 ± 0.23.
For LGPLLSEPLVLYNQNLSNRPSFNR [MYOZ1], in that order: 2.62 ± 0.13 and 2.95 ± 0.49.
For LGSGPDRELRKPEEPENGEPTAAA [PWWP2B], in that order: 5.52 ± 0.18 and 5.25 ± 0.47.
The like results for LGSGQFAIVRKCRQKGTGKEYAAK [DAPK3] were, in that order, 3.55 ± 0.52 and 3.48 ± 0.16.
Take LGVAQRSLPLQDELAFAEDLVLDE [ESRRA]: the protein stability index runs as follows: under setting [1], 3.38 ± 0.65; under setting [2], 3.93 ± 0.71.
For LHLPIMGVVMKVRIPTCHDKPGTT [DENND6A], in that order: 2.24 ± 0.31 and 2.25 ± 0.19.
The like results for LHSLPGVSLSLENRELWKEFSSVG [TBX6] were, in that order, 2.73 ± 0.19 and 2.83 ± 0.37.
On to LHVAARYGHELLINTLITSGADTA [ANKRD44], for which the protein stability index came out at 2.52 ± 0.28 under setting [1] and 2.44 ± 0.72 under setting [2].

The values are drawn from the supplement of paper PMC10567573.
